Patent publication US20210393690A1 (JUNO THERAPEUTICS, published 2021)
Read-outs that look alike come from different tables or passages of the source.

Assays:
[1] = target: T1, cynoBCMA coated on 96-well flat-bottom plates (cynomolgus monkey); test: cell-based or functional assay
[2] = target: T2, recombinant human BCMA-hFc (soluble human BCMA fused at its C-terminus to an Fc region of IgG) (human, UniProt Q02223 1-54, limits assumed, biotinylated in the KinExA experiment of p-1044 (site not stated)); test: KinExA kinetic exclusion analysis; serially diluted CAR-expressing Jurkat cells equilibrated with 20 nM or 1 nM biotinylated rhBCMA hFc
T2 construct: also called rhBCMA hFc; BCMA-Fc; not shown: Fc region of IgG (hFc)
T2 sequence (looked up): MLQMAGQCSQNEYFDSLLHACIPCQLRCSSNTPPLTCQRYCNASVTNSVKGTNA
Description: In a further experiment, Jurkat cells were transduced with a polynucleotide encoding a CAR with a BCMA-55-derived scFv binding domain and were cultured to a density of ˜2×10⁶. The cells were harvested and spun at 1500 g for 15 minutes at 4° C. The cell pellet was washed and cells were resuspended and serially diluted in 20 nM or 1 nM biotinylated rhBCMA hFc (also referred to in this assay as the constant binding partner (CBP). After equilibration, cells were spun down and supernatants were harvested for KinExa kinetic exclusion analysis. Briefly, supernatants from equilibrated BCMA-55-LS CAR O/SSE-expressing Jurkat cells containing rhBCMA hFc were flowed over a streptavidin bead flow cell to capture free biotinylated rhBCMA hFc. The rhBCMA was then detected using a secondary anti-hBCMA antibody that was fluorescently labelled. The […] of the detected rhBCMA hFc was recorded for each sample, and plotted against the number of cells in each dilution (Darling (2004) Assay Drug. Dev., 2:647-657).

[3] = target: T2, recombinant human BCMA-hFc (soluble …); test: kinetics exclusion assay; CAR expressed in a Jurkat T cell line, soluble rhBCMA hFc; CAR on Jurkat cells, kinetics exclusion assay
[4] = target: T2, recombinant human BCMA-hFc (soluble …); test: cell-based or functional assay
[5] = target: T1, cynoBCMA coated on 96-well flat-bottom …; test: cell-based or functional assay; remark: listed apart in the source
[6] = target: T3, human BCMA peptide 30SNTPPLTCQR39 (human); test: CLIPS peptide array ELISA
T3 construct: Peptide of the CLIPS array; could be recognized in a linear form
T3 peptide: SNTPPLTCQR
Description: (§1) Epitopes recognized, e.g., specifically bound to, by exemplary anti-BCMA scFv clones (BCMA-1, BCMA-5, BCMA-9, BCMA-23, BCMA-25, BCMA-26, BCMA-52 and BCMA-55 anti-BCMA scFvs), were assessed using full discontinuous epitope mapping by Chemical Linkage of Peptides onto Scaffolds (CLIPS; Pepscan Presto BV, Lelystad, The Netherlands; see, e.g., Timmerman et al., (2007) J. Mol. Recognit. 20: 283-329). Mapping was carried out using anti-BCMA scFv clones, such as those fused with mouse Fc (scFv-mFc).
(§2) Linear and conformational peptide libraries of amino acid residues 1-54 of human BCMA (set forth as amino acid residues 1-54 of SEQ ID NO:164) were generated based on a combinatorial matrix design. Linear peptides and structural mimetics including single loop, α-helix, β-turn, combinatorial and linear disulfide bridge mimics, and discontinuous epitope mimics were used, along with positive and negative control peptides, on an amino-functionalized solid support.
(§3) Affinities for binding to the peptides in the epitope library were determined using ELISA. The peptide arrays were incubated with a solution containing the scFv overnight at 4° C. Affinity information was used in iterative screens to define the sequence and conformation of epitopes. Heat maps of affinity information for two or more loops were generated.

[7] = target: T4, human BCMA amino acid residues 1-54 (linear and conformational CLIPS peptide libraries) (human); test: CLIPS peptide array ELISA
T4 construct: Not one polypeptide in the assay: arrays of linear peptides and structural mimetics that cover residues 1-54
T4 chain: T2 sequence (looked up)
Description: as §1, §2, §3

[8] = target: T2, recombinant human BCMA-hFc (soluble …); test: Biacore-based assay; scFv-Fc and recombinant human BCMA fusion protein; scFv-Fc fusion, Biacore-based assay

T1 sequence (chain, as listed by the source): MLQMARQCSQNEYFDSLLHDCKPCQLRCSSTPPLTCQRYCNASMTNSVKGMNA

B1: BCMA-55-LS-O/SSE CAR (other)
chain: QSALTQPASVSASPGQSIAISCTGTSSDVGWYQQHPGKAPKLMIYEDSKRPSGVSNRFSGSKSGNTASLTISGLQAEDEADYYCSSNTRSSTLVFGGGTKLTVLGSRGGGGSGGGGSGGGGSLEMAEVQLVQSGAEMKKPGASLKLSCKASGYTFIDYYVYWMRQAPGQGLESMGWINPNSGGTNYAQKFQGRVTMTRDTSISTAYMELSRLRSDDTAMYYCARSQRDGYMDYWGQGTLVTVSSESKYGPPCPPCPAPPVAGPSVFLFPPKPKDTLMISRTPEVTCVVVDVSQEDPEVQFNWYVDGVEVHNAKTKPREEQFQSTYRVVSVLTVLHQDWLNGKEYKCKVSNKGLPSSIEKTISKAKGQPREPQVYTLPPSQEEMTKNQVSLTCLVKGFYPSDIAVEWESNGQPENNYKTTPPVLDSDGSFFLYSRLTVDKSRWQEGNVFSCSVMHEALHNHYTQKSLSLSLGKMFWVLVVVGGVLACYSLLVTVAFIIFWVKRGRKKLLYIFKQPFMRPVQTTQEEDGCSCRFPEEEEGGCELRVKFSRSADAPAYQQGQNQLYNELNLGRREEYDVLDKRRGRDPEMGGKPRRKNPQEGLYNELQKDKMAEAYSEIGMKGERRRGKGHDGLYQGLSTATKDTYDALHMQALPPR
notes: Chimeric antigen receptor on the surface of Jurkat cells, Jurkat Nur77 reporter cells or primary T cells; also called BCMA-55-LS CAR; BCMA-55-L CAR
[1]
  EC50 (read off the curve): ~1 µg/mL
[2]
  Kd: ~1.46 nM
[3]
  Kd: ~1 nM
[4]
  EC50 (read off the curve): ~0.2 µg/mL
[5]
  EC50 (read off the curve): ~0.9 µg/mL

B2: BCMA-23 anti-BCMA scFv (scFv)
scFv: EVQLVESGGGLVKPGGSLRLSCAASGFTFSDYYMSWIRQAPGKGLEWVSYISSSGSTIYYADSVKGRFTISRDNAKNSLYLQMNSLRAEDTAVYYCAKVDGDYTEDYWGQGTLVTVSSGGGGSGGGGSGGGGSQSALTQPASVSGSPGQSITISCTGSSSDVGKYNLVSWYQQPPGKAPKLIIYDVNKRPSGVSNRFSGSKSGNTATLTISGLQGDDEADYYCSSYGGSRSYVFGTGTKVTVL
[6]
  binding result: binds

B3: BCMA-25 anti-BCMA scFv (scFv)
scFv: EVQLVQSGGGLVQPGRSLRLSCTASGFTFGDYAMSWFRQAPGKGLEWVGFIRSKAYGGTTEYAASVKGRFTISRDDSKSIAYLQMNSLKTEDTAVYYCAAWSAPTDYWGQGTLVTVSSGGGGSGGGGSGGGGSDIQMTQSPAFLSASVGDRVTVTCRASQGISNYLAWYQQKPGNAPRLLIYSASTLQSGVPSRFRGTGYGTEFSLTIDSLQPEDFATYYCQQSYTSRQTFGPGTRLDIK
[6]
  binding result: binds

B4: BCMA-26 anti-BCMA scFv (scFv)
scFv: EVQLVESGGGLVKPGGSLRLSCAASGFTFSDYYMSWIRQAPGKGLEWVSYISSSGSTIYYADSVKGRFTISRDNAKNSLYLQMNSLRAEDTAVYYCAKVDGPPSFDIWGQGTMVTVSSGGGGSGGGGSGGGGSSYVLTQPPSVSVAPGQTARITCGANNIGSKSVHWYQQKPGQAPMLVVYDDDDRPSGIPERFSGSNSGNTATLTISGVEAGDEADYFCHLWDRSRDHYVFGTGTKLTVL
[7]
  binding result: binds

B5: BCMA-52-scFv-mFc (Fc fusion, not shown: a dimerising Fc or GST)
chain: SYELTQPPSASGTPGQRVTMSCSGTSSNIGSHSVNWYQQLPGTAPKLLIYTNNQRPSGVPDRFSGSKSGTSASLAISGLQSEDEADYYCAAWDGSLNGLVFGGGTKLTVLGSRGGGGSGGGGSGGGGSLEMAEVQLVQSGAEVKKPGESLKISCKGSGYSFTSYWIGWVRQMPGKGLEWMGIIYPGDSDTRYSPSFQGHVTISADKSISTAYLQWSSLKASDTAMYYCARYSGSFDNWGQGTLVTVSS
[7]
  binding result: binds

B6: BCMA-55-scFv-mFc (Fc fusion, not shown: a dimerising Fc or GST)
chain: QSALTQPASVSASPGQSIAISCTGTSSDVGWYQQHPGKAPKLMIYEDSKRPSGVSNRFSGSKSGNTASLTISGLQAEDEADYYCSSNTRSSTLVFGGGTKLTVLGSRGGGGSGGGGSGGGGSLEMAEVQLVQSGAEMKKPGASLKLSCKASGYTFIDYYVYWMRQAPGQGLESMGWINPNSGGTNYAQKFQGRVTMTRDTSISTAYMELSRLRSDDTAMYYCARSQRDGYMDYWGQGTLVTVSS
[7]
  binding result: binds

B7: BCMA-55 scFv-Fc fusion protein (Fc fusion)
chain: B6 chain
notes: Fc fusion protein containing the scFv portion of the BCMA-55 CAR; also called BCMA-55-Fc; not shown: Fc region
[8]
  Kd: ~10 nM
